According to the nanobody polyreactivity screen of Harvey et al. (2022):

Assay: yeast display, Sf9 membrane polyspecificity reagent, FACS + sequencing; frameworks hold sequencing errors
Outline: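 Sorting gates, low and high (top ~1%), were placed on anti-HA fluorescence to track expression and on streptavidin fluorescence to track reagent binding. A clone's polyreactivity label is taken from the gate it came out of. The reagent was 10% biotinylated, detergent-solubilized Sf9 membrane, applied for 1 hour at 4 °C to galactose-induced yeast display cells.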

Row | Sequence | polyreactivity (PSR sort gate)
1 | QVQLVESGGGLVQAGGSLRLSCAASGSTFDINTMGWYRQAPGKEREFVAAITDSDDSTYYADSVKGRFTISRDNAKNTVYLQMNSLKPEDTAVYYCNYDYWGQGTQVTVSS | low polyreactivity
2 | QVQLVESGGGLVQAGGSLRLSCAASGFIFGPNAMGWYRQAPGKERELVAAITLSGGSTYYADSVKGRFTISRDNAKNTVYLQMNSLKPEDTAVYYCATTYYHNYLLYGYWGQGTQVTVSS | low polyreactivity
3 | QVQLVESCGGLVQAGGSLRLSCAASGSIFGWYAMGWYRQAPGKESELVAAISTSTGSTYYADSVKGRFTISRDNAKNTVYLQMNSLKPEDTAVYYCAVVVAGVFLWGVERYDYWGQGTQVTVSS | low polyreactivity
4 | QVQLVESGGGLVQAGGSLRLSCAASGRIFPRNAMGWYRQAPGKERELVASITSGGSTNYADSVKGRFTNSRDNAKNTVYLQMNSLKPEDTAVYSCAALYRQVTSPYRYYYWGQGTQVTVSS | high polyreactivity
5 | QVQLVESGGGLVQAGGSLSLSCAASGSTFYSNAMGWYRQAPGKERELVAAISIGGSTYYADSVKGRFTISRDNAKNTVYLQMNSLKPEDTAVYYCAVDYRHSSSWNAGRWEMYYWGQGTQVTVSS | low polyreactivity
6 | QVQLVESGGGLVQAGGSLRLSCAASGSTFIPNAMGWYRQAPGKERELVAAISTGGSTNYADSVKGRFTISRDNAKNTVYLQMNSLKPEDTAVYYCNDRRGYFNPGRRFYYWGQGTQVTVSS | low polyreactivity
7 | QVQLVESGGGLVQAGGSLRLSCAASGSIFVRYAMGWYRQAPGKERELVAAISSGGRTYYADSVKGRFTISRDNAKNTVYLQMNSLKPEDTAVYYCNAVKRVPSLGPYDYWGQGTQVTVSS | high polyreactivity
8 | QVQLVESGGGLVQAGGSLRLSCAASGRIFGWYAMGWYRQAPGKERELVAAIDGGDDSTYYADSVKGRFTISRDNAKNTVYLQMNSLKPEDTAVYYCAVVGYNWGQGSQVTVSS | low polyreactivity
9 | QVQLVESGGGLVQAGGSLRLSCAASGRIFTGYAMGWYRQAPGKEREVVAAISRGGSTNYADSVKGRFTISRDNAKNTVYLQMNSLKPEDTAVYYCAAGVHWDRGDYWGQGTQVNVSS | low polyreactivity
10 | QVQLVESGGGLVQAGGSLRLRCAASGKTFSWYALGWYRLAPGKERELVAVITSGGSTNYADSVKWRFTISRDNAKNTVYLQMNSLKPEDTAVYYCNRRPYGFEEFDYWGQGTQVTVSS | low polyreactivity
11 | QVQLVESGGGLVQAGVSLRLSCAASGRIFLWYAMGWYRQAPGKERELVAVIRGRGDSTSYADSVKGRFTISRDNAKNTVYLQMNSLKPEDTAVYYCADVGRYDYNDWGQGTQVTVSS | low polyreactivity
12 | QVQLVESGGGLVQAGGSLRLSCAASGFTLSYYAMGWYRPAPGKEREFVAAIRTSGTSTYYADSVKGRFTISRDNAKNTVYLQMNSLKPEDTAVYYCAVARGSGWYWRSDYWGQGTQVTVSS | high polyreactivity
13 | QVQLVESGGGLVQAGGSLRLSCAASGSTLLYYAMGWYRQAPGKERELVAAISWRGGSTYYADSVTGRFTISRDNAKTTVYLQINSLKPEDTAVYYCARDIRLKGFRYDYWGQGTQVTVSS | high polyreactivity
14 | QVQLVESGGGLVQAGGSLRLSCAASGRIFRYYAMGWYRQAPGKERELVAAISGSGGSTYYADSVKGRFTISRDNAKNTVYLQMNSLKPEDTAVYYCNARYRIPSGEGDHWGQGTQVTVSS | low polyreactivity
15 | QVQLVESGGGLVQAGGSLRLSCAASGFTLLGNTMGWYRQAPGKERELVAAIRTNSGRTYYADSVKGRFTISRDNAKNTVYLQMNSLKPEDTAVYYCAKRYFSYLGREMDYWGQGTQVTVSS | high polyreactivity
16 | QVQLVESGGGLVQAGGSLRLNCAASGITYTQYAMGWYRQAPGKERELVAAISKRGGRTYYADSVKGRFTISRDNAKNTVYLQMNCLIPEDTAVYYCATVPYGEVDYWGQGTQVTVSS | high polyreactivity
17 | QVQLVESGGGLVQAGGSLRLSCAASGSIYYTNAMGWYRQAPGKERELVAAIRWSGGRTYYADSVKGRFTISRDNAKNTVYLQMNSLKPEDTAVYYCNKVPRTPIPYKYGYWGQGTQVTVSS | high polyreactivity
18 | QVQLVESGGGLVQAGGTLRLSCASSGRIFYHYAMGWDRQAPGKERELVAAISTHTGTTYYADSVKGRFTISRDNAKNTVYLQMNSLKPEDTAVYYCAKRSRYGYGKSYDYWGQGTQVTVST | high polyreactivity
19 | QVQLVESGGGLVQAGGSLRLSCAASGRIFRLYTMGWYRQAPGKERELVAAISSAGSTKYADSVKGRFTISRDNAKNTVYLQMNSLKPEDTAVYYCAAGRYYYRSGFYTPVRYYSWGQGTQVTVSS | high polyreactivity
20 | QVQLVESVGGLVQAGGSLRLSCAASGFTSWDNDMGWYRQAPGKERELVAAISRGGSTNYADSVKGRFTISRDNAKNTVYLQMNSLKPEDTAVYYCATAAVTPVWYDYWGQGTQVTVSS | low polyreactivity
21 | QVQLVESGGGLVQAGGSLRLSCAASGSTLVTYAMGWYRQAPGKERELVARIDSGGSTNYADSVKGRFTISRDNAKNTVYLQMNSLKPEDTAVYYCSAGGGFYFIWTMDYWGQGTQVTVSS | low polyreactivity
